Data published in patent publication US20040167074A1, “Therapeutic applications of mFLINT polypeptides” (priority 1998, published 2004).

Assays:
CD40 L = target: T1, CD40 L (Homo sapiens, UniProt P29965); test: Dot blot binding of mFLINT to TNF ligands
T1 construct: purchased
T1 sequence (P29965 113-261 limits assumed): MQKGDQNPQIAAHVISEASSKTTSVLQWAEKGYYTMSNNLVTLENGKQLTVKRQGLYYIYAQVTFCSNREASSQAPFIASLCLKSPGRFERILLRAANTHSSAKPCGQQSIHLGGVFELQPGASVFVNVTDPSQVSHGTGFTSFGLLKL

TRANCE = target: T2, TRANCE (Homo sapiens, UniProt O14788); test: Dot blot binding of mFLINT to TNF ligands
T2 construct: purchased
T2 sequence (O14788 140-317 limits assumed): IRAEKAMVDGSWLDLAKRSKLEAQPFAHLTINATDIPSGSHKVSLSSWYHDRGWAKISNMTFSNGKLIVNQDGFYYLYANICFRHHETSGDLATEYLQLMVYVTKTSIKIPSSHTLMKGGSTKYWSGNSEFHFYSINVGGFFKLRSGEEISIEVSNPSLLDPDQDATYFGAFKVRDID

[1] = system: Mouse T cell hybridoma cells (LTT cells); test: Murine FasL-mediated apoptosis of LTT cells (MTS cytotoxicity assay); format: cell-based; details: test agent 1 μg/ml
Procedure: LTT,2,14,11 cells (LTT cells), see Glasebrook, Eur.J.Immunol. 17: 1561-65 (1987), were used in this Annexin V assay. On the first day, a 96 well plate was coated with anti-CD3 (2C11) at a serial dilutions. On the second day, 100,000 LTT cells were added, in 50 μl of medium per well, along with 50 μl of medium to the control wells and 50 μl of medium containing:
The same steps as in Example 16 were followed on Day 1 and Day 2. On Day 3 20 ul of MTS solution (Promega) was added to the cells which were then incubated at 37° C. for 2 hours. Using a plate reader, the absorbances at 490 nm wavelength were collected.

LIGHT = LIGHT cell surface binding assay by flow cytometry; details: LIGHT expressing cells preincubated with 10 fold excess of non tagged mFLINT
Procedure: To confirm the dot blot binding between LIGHT and mFLINT, 293 cells were transiently transfected with LIGHT expression construct overnight. On the next day, cells were detached and incubated with mFLINT-Flag on ice. […] As a control we used vector transfected cells. To make sure that the binding was specific, a competition assay with 10 fold access of untagged mFLINT was performed.
More particularly, 6 well dishes of cells were transfected as above. Both vector and m-LIGHT expressing cells were provided. Cells were detached from the plates by vigorous pipetting with a P100 Pipettor. Then, in PBS/BSA, 0.1%, cells were exposed to one of the following combinations, set forth in a-d.
a. GST/flag, mFLINT/flag, or HVEM at 20 nM;
b. FLINT/flag at 20 nM+GST/flag or mFLINT or HVEM at 200 nM;
c. FLINT/flag at 20 nM+HVEM+anti-human FAS ligand at 200 n-M;
d. anti-human FAS ligand-biotin at 1 μg/ml
Cells were incubated on ice for 30 minutes and washed with PBS/BSA, 0.1%. Cells then were exposed either to anti-human IgG-biotin, 1 μg/ml (for detection of HVEM), or to M2-biotin, 2 μg/ml (for detection of flag conjugates). Cells were incubated on ice for 30 minutes and washed with PBS/BSA, 0.1%. Thereafter, cells were exposed to streptavidin Alexa 488 (SIGMA) at a 1:1000 dilution. Again, cells were incubated on ice for 30 minutes and washed with PBS/BSA, 0.1 1%. Cells were analyzed using a FACSORT flow cytometer (Decton Dickinson) to determine binding.

B16 melanoma cells = test: B16 melanoma subcutaneous tumor growth; format: in vivo; details: days 4-13
Procedure: Tumor response was monitored by tumor volume measurements as determined by caliper measurements of two dimensions of the tumors on days 4, 8, 11, 17, 21, 25, 30 and 34. Tumor volume was calculated as a hemi-ellipsoid. The animals were weighed on the same schedule described above.

[2] = system: bone marrow progenitor cells; test: CFU assay of bone marrow cells expanded in vitro with SCF and IL-6; format: cell-based, mouse; details: FIG. 9, mFLINT 1 ug/ml, 3 days with SCF and IL-6
Procedure: A—Bone marrow cells from irradiated mice—This experiment was designed to determine whether mFLINT could improve the recovery of murine hematopoietic progenitor cells from irradiation, by forcing in vitro expansion with hematopoietic cytokines. Mice were injected with 3 mg of 5-flouro-uracil, i.p., and four days later, femurs were removed and flushed to isolate bone marrow (BM) cells. 1×10^6 BM cells were seeded in each well of a 24 well tray in triplicate in Iscoves modified dulbeccos media (IMDM)+10% FBS and were stimulated for 3 days with the cytokines stem cell factor (SCF) and IL-6, in the presence or absence of mFLINT (1 ug/ml). After a 3-day in vitro expansion period, 5×10^3 cells were plated out in triplicate for the CFU assay.

B1: mFLINT: mature FLINT without leader peptide (FIG. 3), soluble TNFR superfamily member, made according to Examples 8 and 9 (protein)
chain: VAETPTYPWRDAETGERLVCAQCPPGTFVQRPCRRDSPTTCGPCPPRHYTQFWNYLERCRYCNVLCGEREEEARACHATHNRACRCRTGFFAHAGFCLEHASCPPGAGVIAPGTPSQNTQCQPCPPGTFSASSSSSEQCQPHRNCTALGLALNVPGSSSHDTLCTSCTGFPLSTRVPGAEECERAVIDFVAFQDISIKRLQRLLQALEAPEGWGPTPRAGRAALQLKLRRRLTELLGAQDGALLVRLLQALRVARMPGLERSVRERFLPVH
modifications: glycosylated
binding in dot blot (CD40 L): No appreciable binding | binding in dot blot (TRANCE): No appreciable binding | MTS absorbance at 490 nm ([1]; Anti CD3 conc. 0 μg/ml): 1.691 | MTS absorbance at 490 nm ([1]; Anti CD3 conc. 0.0014 μg/ml): 1.923 | MTS absorbance at 490 nm ([1]; Anti CD3 conc. 0.004 μg/ml): 1.982 | MTS absorbance at 490 nm ([1]; Anti CD3 conc. 0.012 μg/ml): 2.006 | MTS absorbance at 490 nm ([1]; Anti CD3 conc. 0.037 μg/ml): 2.006 | MTS absorbance at 490 nm ([1]; Anti CD3 conc. 0.11 μg/ml): 1.874 | MTS absorbance at 490 nm ([1]; Anti CD3 conc. 0.33 μg/ml): 1.671 | MTS absorbance at 490 nm ([1]; Anti CD3 conc. 1 μg/ml): 1.581 | competition of mFLINT-Flag binding (LIGHT): completely reversed to baseline peak | day tumors reached a volume of 500 mm^3 (B16 melanoma cells; 50 μg/injection iv once daily): 19.3 ± 0.3 days | day tumors reached a volume of 1000 mm^3 (B16 melanoma cells; 50 μg/injection iv once daily): 23.0 ± 0.4 days | tumor growth delay (B16 melanoma cells; 50 μg/injection iv once daily): 1.8 days | tumor volume after 20 days (B16 melanoma cells; FIG. 8, 50 μg/injection iv, control approximately 1000 mm^3): approximately 730 mm^3 | CFU-GEMM colonies ([2]; control 750, p<0.007): 3,000 colonies/3×10^6 stimulated BM cells | CFU-GM colonies ([2]; control 8,000, p<0.039): 15,000 colonies/3×10^6 stimulated BM cells | CFU-E colonies ([2]; control 15,000, p<0.003): 33,000 colonies/3×10^6 stimulated BM cells
